Experimental data published in patent US6890900B2, “Methods for treating or preventing diseases of the oral cavity” (Campina B.V., priority 2001, dated 2005).

What was measured:
Assay in all cases: LF/GMP assay, viable plate count (pour plate) of broth culture
Format in all cases: cell-based
[1] = tested on: Pseudomonas aeruginosa ATCC #27853; parameters: key to MIBC: NCF: No Effective Concentration Found; conditions: for Colony Counts: viable plate count
Description: Bacterial strains used in this study were Pseudomonas aeruginosa ATCC #27853, Streptococcus mutans ATCC #33535, Streptococcus pyogenes ATCC #19615, and Actinobacillus haemophilus ATCC #43717 and an oral swab from a healthy adult. Bacteria were grown on blood/BHT media (Brain Heart Infusion Agar with protease peptone, sodium chloride, glucose, di-sodium phosphate, and agar, Oxoid, Hampshire England, Sheep's Blood) in the presence of 5% CO2 at 35° C. Bacteria were harvested by swabbing inoculated growth plates after 24 hours and diluting the colonies in 9 ml of deionized water (DI water) until a suspension of 0.5 McFarland Turbidity Standard was reached using the nephelometer (McFarland Turbidity Meter). The 0.5 McFarland value is approximately equivalent to 1.0×10^8 organisms. One ml of the appropriate bacterial dilution was taken using a sterile pipette and introduced into 8 ml of sterilized BHI broth. (Preparation of BHI broth: 37 g+1,000 ml DI water, Difco Laboratories. By pipette, 9 ml of broth was placed into medium test tubes as means of a control and 8 ml test tubes were prepared for the concentration tests).
This solution was filtered through a 0.45 μm filter. […] Example for calculating 2,500 ppm dilution (1,000 ppm=0.1%): [formula] [formula] [formula] […]
One mL of each bacterial strain, plus one mL of sialic acid solution (1,000 ppm) were inoculated into test tubes filled with 8 mL of BHI broth. Each test tube was vortexed, incubated for 24 hours at 35° C. with 5% CO2, and then pour plated in BHI agar to obtain a plate count.
This technique was used to determine the density of living (viable) cells in inoculated broth cultures. It involves plating a bacterial sample and counting the resulting colonies after incubation. A serial dilution of the original broth was taken prior to plating. The serial dilution is necessary to reduce the density of organisms in order to create countable plates. Only plates containing between 25 and 250 colonies are considered countable. Cell densities are traditionally recorded as CFU (colony forming unit)/ml. By convention, when 1.0 ml is inoculated onto a plate, the dilution factor (DF) is recorded as tenfold greater. Formula: [formula]
The assays required the use of a pour plate technique. The pour plate technique adds a step to the conventional serial dilution. The 1 ml of dilution is added to a warm emulsion of dilute nutrient (BHI) agar to produce an agar overlay in the petri plates. After incubation, the bacterial growth covers the entire plate but individual cellular movement has been restricted by the soft agar overlay. Each colony formed is assumed to have originated from a single CFU. The plates were gently mixed, inverted, and incubated for 18-24 hour at 35° C. […]

[2] = tested on: Streptococcus mutans ATCC #33535; conditions: 35° C.; for Colony Counts: viable plate count
Description: (§1) Bacterial strains used in this study were Pseudomonas aeruginosa ATCC #27853, Streptococcus mutans ATCC #33535, Streptococcus pyogenes ATCC #19615, and Actinobacillus haemophilus ATCC #43717 and an oral swab from a healthy adult. Bacteria were grown on blood/BHT media (Brain Heart Infusion Agar with protease peptone, sodium chloride, glucose, di-sodium phosphate, and agar, Oxoid, Hampshire England, Sheep's Blood) in the presence of 5% CO2 at 35° C. […] One ml of the appropriate bacterial dilution was taken using a sterile pipette and introduced into 8 ml of sterilized BHI broth. […] By pipette, 9 ml of broth was placed into medium test tubes as means of a control and 8 ml test tubes were prepared for the concentration tests). […] This solution was filtered through a 0.45 μm filter. […] To study the kinetics of LF/GMP binding, each strain of bacteria was taken separately with a sterile pipette and placed into an 8 ml BHI broth test tube, vortexed, and incubated in the presence of 1 ml of LF or GMP for 18-24 hours at 35° C. with 5% CO2. In the combination procedure, 0.5 ml of both LF and […] were taken as 1 ml inoculations. One mL of each bacterial strain, plus one mL of sialic acid solution (1,000 ppm) were inoculated into test tubes filled with 8 mL of BHI broth. Each test tube was vortexed, incubated for 24 hours at 35° C. with 5% CO2, and then pour plated in BHI agar to obtain a plate count. This technique was used to determine the density of living (viable) cells in inoculated broth cultures. It involves plating a bacterial sample and counting the resulting colonies after incubation. A serial dilution of the original broth was taken prior to plating. The serial dilution is necessary to reduce the density of organisms in order to create countable plates. Only plates containing between 25 and 250 colonies are considered countable. Cell densities are traditionally recorded as CFU (colony forming unit)/ml. […] Formula: [formula] The assays required the use of a pour plate technique. The pour plate technique adds a step to the conventional serial dilution. The 1 ml of dilution is added to a warm emulsion of dilute nutrient (BHI) agar to produce an agar overlay in the petri plates. After incubation, the bacterial growth covers the entire plate but individual cellular movement has been restricted by the soft agar overlay. Each colony formed is assumed to have originated from a single CFU. The plates were gently mixed, inverted, and incubated for 18-24 hour at 35° C. Using a control (one broth tube inoculated with a bacterial strain, but no LF), the effectiveness of LF was examined. Each test tube containing a specified amount of LF (50, 100, 250, 500, 1,000 ppm and 3000 ppm) was diluted and plates were poured. […] A. haemophilus, S. mutans, S. pyrogenes and an oral culture were tested at 35° C. Pseudomonas aeruginosa was tested at both room temperature and 35° C. with 5% CO2. This was done because P. aeruginosa is not strictly an oral pathogen. It is commonly found in the environment in various conditions. It can be found in the environment and oral intake can cause inflammation in the oral cavity. Most normal oral bacteria are only found in the mouth and are not taken in from outside factors. Therefore, P. aeruginosa is a threat in both temperature settings. […] (see Table 2).

[3] = tested on: Actinobacillus haemophilus ATCC #43717; conditions: 35° C.; for Colony Counts: viable plate count
Description: as §1

[4] = Lactoferrin/GMP 250/0 ppm (LF alone)
[5] = Lactoferrin/GMP 3,000/0 ppm (LF alone)
[6] = Lactoferrin/GMP 3,000/0 ppm (LF alone), listed as Lactoferrin

B1: LF: Bovine lactoferrin, iron-binding glycoprotein purified from milk, provided by DMV International (protein, UniProt P24627 20-708, looked up)
Lactotransferrin: APRKNVRWCTISQPEWFKCRRWQWRMKKLGAPSITCVRRAFALECIRAIAEKKADAVTLDGGMVFEAGRDPYKLRPVAAEIYGTKESPQTHYYAVAVVKKGSNFQLDQLQGRKSCHTGLGRSAGWIIPMGILRPYLSWTESLEPLQGAVAKFFSASCVPCIDRQAYPNLCQLCKGEGENQCACSSREPYFGYSGAFKCLQDGAGDVAFVKETTVFENLPEKADRDQYELLCLNNSRAPVDAFKECHLAQVPSHAVVARSVDGKEDLIWKLLSKAQEKFGKNKSRSFQLFGSPPGQRDLLFKDSALGFLRIPSKVDSALYLGSRYLTTLKNLRETAEEVKARYTRVVWCAVGPEEQKKCQQWSQQSGQNVTCATASTTDDCIVLVLKGEADALNLDGGYIYTAGKCGLVPVLAENRKSSKHSSLDCVLRPTEGYLAVAVVKKANEGLTWNSLKDKKSCHTAVDRTAGWNIPMGLIVNQTGSCAFDEFFSQSCAPGADPKSRLCALCAGDDQGLDKCVPNSKEKYYGYTGAFRCLAEDVGDVAFVKNDTVWENTNGESTADWAKNLNREDFRLLCLDGTRKPVTEAQSCHLAVAPNHAVVSRSDRAAHVKQVLLHQQALFGKNGKNCPDKFCLFKSETKNLLFNDNTECLAKLGGRPTYEEYLGTEYVTAIANLKKCSTSPLLEACAFLTR
With B1 the “Colony Counts” value ([1]; 50 ppm, 35° C., 24 h) was 4.6 × 10^8, the “Colony Counts” value ([1]; 100 ppm, 35° C., 24 h) was 3.6 × 10^8 and the “Colony Counts” value ([1]; 250 ppm, 35° C., 24 h) was 2.6 × 10^8. For the same molecule, the “Colony Counts” value ([1]; 1,000 ppm, 35° C., 24 h) was 3.2 × 10^8, the “Colony Counts” value ([1]; 3,000 ppm, 35° C., 24 h) was 1.2 × 10^8 and the “Total Log Reduction” value ([1]; Lactoferrin/GMP 250/0 ppm (LF alone), 23° C. (room temperature)) was 1 log. The “Total Log Reduction” value ([1]; Lactoferrin/GMP 250/0 ppm (LF alone), 35° C.) was 0 log, the “Total Log Reduction” value ([1]; Lactoferrin/GMP 3,000/0 ppm (LF alone), 23° C. (room temperature)) was 0 log and the “Total Log Reduction” value ([1]; Lactoferrin/GMP 3,000/0 ppm (LF alone), 35° C.) was 0 log. For the same molecule, the “# Log Reductions” value ([1]; at the MIBC, vs control, 35° C.) was 0 log, the MIBC ([1]; single agent, 35° C., 24 h, 5% CO2) was “NCF” and the “Colony Counts” value ([2]; 50 ppm, 24 h) was 1.9 × 10^8. For the same molecule, the “Colony Counts” value ([2]; 100 ppm, 24 h) was 1.9 × 10^8, the “Colony Counts” value ([2]; 250 ppm, 24 h) was 1.7 × 10^8 and the “Colony Counts” value ([2]; 500 ppm, 24 h) was 1.4 × 10^8. For the same molecule, the “Colony Counts” value ([2]; 1,000 ppm, 24 h) was 1.2 × 10^8, the “Colony Counts” value ([2]; 3,000 ppm, 24 h) was 5.5 × 10^7 and the “Total Log Reduction” value [2, 4] was 0 log. The “Total Log Reduction” value [2, 5] was “one log”, the “Total Log Reduction” value [2, 6] was 1 log and the “# Log Reductions” value ([2]; at the MIBC, vs control) was 1 log. The MIBC ([2]; single agent, 24 h, 5% CO2) was 3,000 ppm, the “Colony Counts” value ([3]; 50 ppm, 24 h) was 2.6 × 10^8 and the “Colony Counts” value ([3]; 100 ppm, 24 h) was 2.5 × 10^8. For the same molecule, the “Colony Counts” value ([3]; 250 ppm, 24 h) was 2.5 × 10^8, the “Colony Counts” value ([3]; 500 ppm, 24 h) was 2.3 × 10^8 and the “Colony Counts” value ([3]; 1,000 ppm, 24 h) was 2.4 × 10^8. The “Colony Counts” value ([3]; 3,000 ppm, 24 h) was 5.3 × 10^7, the “Total Log Reduction” value [3, 4] was 0 log and the “Total Log Reduction” value [3, 5] was “one log”. The “Total Log Reduction” value [3, 6] was 1 log, the “# Log Reductions” value ([3]; at the MIBC, vs control) was 1 log and the MIBC ([3]; single agent, 24 h, 5% CO2) was 3,000 ppm.
